This note sets out measurements from publication doi:10.1101/310227.

Assay [1] addresses Halo-tagged isopeptide-blocker (Spy0128 β-strand11 mimic) (Streptococcus pyogenes). The experiment in a line: pull-down.
The target of assay [2] is Spy0128 polyprotein I91-Spy0128-I91-Spy0128-I91 (not stated | Streptococcus pyogenes). Kind of assay: AFM force spectroscopy.

Ends that are not written are not given here.

In assay [1], “Spy0128 polyprotein I91-Spy0128-I91-Spy0128-I91” registered a percent of modified Spy0128 after enrichment on Magne-HaloTag-beads of 60%.

MEFTDKDMTITFTNKKDAEEDIRSEDLYFQSDNTTPE (also: Halo-tagged, site not given here) [Halo-tagged isopeptide-blocker (Spy0128 β-strand11 mimic)]: in assay [2], the percent of AFM traces with at least one modified Spy0128 came out at 32.5% and the percent of Spy0128 blocked amounted to 21.1%.
